# Data reported in patent US20180057551A1 (AMYLONIX, published 2018).
# B1: albumin binding domain GA3 from streptococcal Protein G (ABD), periplasmic control (other)
# chain: LAEAKVLANRELDKYGVSDYYKNLINNAKTVEGVKALIDEILAALP
# notes: periplasm containing ABD only; also called negative control; blank control
# Molecular target: T1, anti-ABD goat antibody (produced in-house)
# T1 construct: also called Anti-ABD surface
# Experiment: SPR Biacore 2000, periplasmic sample over immobilised anti-ABD goat antibody
# Protocol: A selection of Aβ peptide binding polypeptides was subjected to an analysis of the response against biotinylated hAβ₁₋₄₀ using a Biacore 2000 instrument (GE Healthcare). Biotinylated anti-ABD goat antibody (produced in-house) and N-terminally biotinylated hAβ₁₋₄₀ (AnaSpec cat. no. AS-24648) were immobilized in separate flow cells on a streptavidin coated chip (Biacore Sensor Chip SA, cat. no. BR100032) using HBS-EP as running buffer (0.01 M HEPES pH 7.4, 0.15 M NaCl, 3 mM EDTA, 0.005% v/v Surfactant P20, GE Healthcare, cat. no. BR100188). The ligand immobilization levels on the surfaces were approximately 2000 RU for the anti-ABD antibody and 225 RU for hAβ₁₋₄₀. One flow cell surface on the chip was used as blank during analyte injections. HBS-EP was used as running buffer and the flow rate was 25 μl/min. The analytes, i.e. periplasmic preparations of Aβ peptide binding polypeptides as described above, were each diluted 15× in HBS-EP buffer and injected for 10 min, followed by dissociation in running buffer for 5 min. After dissociation, the surfaces were regenerated with 2 pulses of 10 mM glycin pH 2.0. […]
# The interactions of a subset of Z variants with anti-ABD goat antibody and hAβ₁₋₄₀ were analyzed in a Biacore instrument by injecting dilutions of periplasmic samples.
binder,measurement,value
B1,Response RU,19.8 RU
